Assay results published in PMC10998906 (NPJ Vaccines, 2024).

Biological target: HA (NL03, A/Netherlands/213/2003(H3N2)) (Influenza A virus …, strain)
Assay: negative-stain EM
Details: both partners purified

B1: CR9114 Fab (Fab, V domains shown)
VH: QVQLVQSGAEVKKPGSSVKVSCKSSGGTSNNYAISWVRQAPGQGLDWMGGISPIFGSTAYAQKFQGRVTISADIFSNTAYMELNSLTSEDTAVYFCARHGNYYYYSGMDVWGQGTTVTVSS
VL: QSALTQPPAVSGTPGQRVTISCSGSDSNIGRRSVNWYQQFPGTAPKLLIYSNDQRPSVVPDRFSGSKSGTSASLAISGLQSEDEAEYYCAAWDDSLKGAVFGGGTQLTVL
stoichiometry N: 1 Fab per particle
